{"source": "patent EP2727942A1", "binders": {"B1": {"name": "Antibody 32 (antibody, V domains shown)", "VH": "QSVEESGGRLVTPGTPLTLTCTVSGFSLSSYDMSWVRQAPGKGLEWIGFIDGDSNTYDATWAKGRFTISKTSTTVDLKITSPTTEDTATYFCTRGFNLWGQGTLVTVSS", "VL": "DVVMTQTPASVSEPVGGTVTIKCQASQSISSYLAWYQQKPGQPPKLLIYKASTLASGVSSRFKGSGSGTEFTLTISDLECADAATYYCQCSAGGRSGIGGFGGGTEVVVK"}, "B2": {"name": "Antibody 55 (antibody, V domains shown)", "VH": "QSLEESGGRLVTPGGSLTLTCTVSGSDISSYDMSWVRQAPGKGLEWIGYIWSGTTIYYASWPKGRFTISKTSSTTVDLKMTSLTTEDTATYFCAAINIYTYVYSLWGPGTLVTVSS", "VL": "AYDMTQTPASVEAAVGGTVTIKCQASESIYSSLAWYQQKSGQPPKLLIYLASTLASGVPSRFKGSGSGTDYTLTISGVECADAATYYCQQHYSGSNVDNAFGGGTEVVVK"}, "B3": {"name": "Antibody 52 (antibody, V domains shown)", "VH": "QSVEESGGRLVTPGTALTLTCTVSGFSLSSGDMSWVRQAPGKGLEWIGYIWSGVSTYYANWAKGRFTISKTSSTTVDLKMTSLTIEDTATYFCARVDFYSYVYSLWGPGTLVTVSS", "VL": "ALVMTQTPASVEAAVGGTVTIKCQASQSISSCLAWYQQKPGQPPKLLIYSASTLASGVPSRFKGSGSGTEYTLTISGVECADAATYYCQQHYTSNNIDNAFGGGTEVVVK"}, "B4": {"name": "Antibody 60 (antibody, V domains shown)", "VH": "B2 VH with I56T, S60N, P62A, A95T, I96V", "VL": "B2 VL with A13V, E27Q, Y30S, S31T, S32A, D70E, S95N"}, "B5": {"name": "Antibody 56 (antibody, V domains shown)", "VH": "QSLEESGGRLVTPGTPLTLTCTASGFSLSSYDLSWVRQAPGKGLEWIAYIWSGDKTYYANWAKGRFTISKTSSTTVDLKMTSLTTEDTATYFCATVNIYSYVYSLWGPGTLVTVSS", "VL": "B2 VL with A13V, E27Q, Y30S, S31T, S32A, D70E, G94S, S95N"}, "B6": {"name": "Antibody 34 (antibody, V domains shown)", "VH": "QEQLVESGGGLVQPEGSLTLTCKASGFSFSSGYYMCWVRQAPGKGLEWIACIYADSSESTYYASWAKGRFTISKTSSTTVTLQVTSLTAADTATYFCARWGTVAGYSTFNLWGPGTLVTVSS", "VL": "DVVMTQTPASVSEPVGGTVTIKCQASQSISTALAWYQQKPGQPPKLLIYFTSTLASGVSSRFKGSGSGAEFTLTISDLECADAATYYCQGYYYVTNFPFGGGTEVVVK"}, "B7": {"name": "Antibody 6 (antibody, V domains shown)", "VH": "QSVEESGGRLVTPGTPLTLTCTVSGFSLSSYTMGWVRQAPGKGLEYIGIINTGGYTYYASWAKGRFTISRTSTTVDLSMTSLTTEDTATYFCARVYPGSSCDLWGQGTLVTVSS", "VL": "DVVMTQTPASVSEPVGGTVTIKCQASQSISSSYLSWYQQKPGQPPKLLIYRASTLESGVPSRFKGSGSGTEFTLTISDLECADAATYYCQCTDYAGSYVGGAFGGGTEVVVK"}}, "key": {"[1]": {"molecular_target": "recombinant Fc chimeric conjugate of human EGFR (human) (UniProt P00533)", "test": "ELISA, coated antigen, B-cell supernatant, IgG 1170,2 ng/ml"}, "[2]": {"molecular_target": "recombinant Fc chimeric conjugate of human HER3 (human) (UniProt P21860)", "sequence (P21860 20-643, change not shown)": "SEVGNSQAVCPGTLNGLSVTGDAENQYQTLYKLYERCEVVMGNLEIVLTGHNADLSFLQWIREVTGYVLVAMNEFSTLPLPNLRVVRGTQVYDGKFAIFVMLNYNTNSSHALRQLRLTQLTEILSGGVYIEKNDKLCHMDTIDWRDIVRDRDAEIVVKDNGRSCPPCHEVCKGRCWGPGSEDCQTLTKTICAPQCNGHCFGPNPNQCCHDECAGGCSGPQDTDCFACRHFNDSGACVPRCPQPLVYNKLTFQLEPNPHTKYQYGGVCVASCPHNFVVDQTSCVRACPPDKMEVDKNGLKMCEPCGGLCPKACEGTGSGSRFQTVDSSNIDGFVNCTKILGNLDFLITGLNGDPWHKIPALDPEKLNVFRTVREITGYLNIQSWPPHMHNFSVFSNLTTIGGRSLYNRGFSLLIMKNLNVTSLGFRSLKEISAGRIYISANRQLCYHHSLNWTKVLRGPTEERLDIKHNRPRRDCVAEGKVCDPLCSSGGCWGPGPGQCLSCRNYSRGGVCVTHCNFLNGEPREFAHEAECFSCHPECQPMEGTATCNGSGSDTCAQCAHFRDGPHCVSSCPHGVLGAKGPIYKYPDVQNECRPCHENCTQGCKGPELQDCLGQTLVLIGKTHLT", "test": "ELISA, coated antigen, B-cell supernatant, IgG 1170,2 ng/ml"}, "[3]": {"molecular_target": "recombinant Fc chimeric conjugate of human EGFR (human) (UniProt P00533)", "test": "ELISA, coated antigen, B-cell supernatant, IgG 250,4 ng/ml"}, "[4]": {"molecular_target": "recombinant Fc chimeric conjugate of human HER3 (human) (UniProt P21860)", "test": "ELISA, coated antigen, B-cell supernatant, IgG 250,4 ng/ml"}, "[5]": {"molecular_target": "recombinant Fc chimeric conjugate of human EGFR (human) (UniProt P00533)", "test": "ELISA, coated antigen, B-cell supernatant, IgG 146,1 ng/ml"}, "[6]": {"molecular_target": "recombinant Fc chimeric conjugate of human HER3 (human) (UniProt P21860)", "test": "ELISA, coated antigen, B-cell supernatant, IgG 146,1 ng/ml"}, "[7]": {"molecular_target": "recombinant Fc chimeric conjugate of human EGFR (human) (UniProt P00533)", "test": "ELISA, coated antigen, B-cell supernatant, IgG 59,9 ng/ml"}, "[8]": {"molecular_target": "recombinant Fc chimeric conjugate of human HER3 (human) (UniProt P21860)", "test": "ELISA, coated antigen, B-cell supernatant, IgG 59,9 ng/ml"}, "[9]": {"molecular_target": "recombinant Fc chimeric conjugate of human EGFR (human) (UniProt P00533)", "test": "ELISA, coated antigen, B-cell supernatant, IgG 565,3 ng/ml"}, "[10]": {"molecular_target": "recombinant Fc chimeric conjugate of human HER3 (human) (UniProt P21860)", "test": "ELISA, coated antigen, B-cell supernatant, IgG 565,3 ng/ml"}, "[11]": {"molecular_target": "recombinant Fc chimeric conjugate of human EGFR (human) (UniProt P00533)", "test": "ELISA, coated antigen, B-cell supernatant, IgG 1143,3 ng/ml"}, "[12]": {"molecular_target": "recombinant Fc chimeric conjugate of human HER2 (human) (UniProt P04626)", "test": "ELISA, coated antigen, B-cell supernatant, IgG 1143,3 ng/ml"}, "[13]": {"molecular_target": "recombinant Fc chimeric conjugate of human EGFR (human) (UniProt P00533)", "test": "ELISA, coated antigen, B-cell supernatant, IgG 1912,4 ng/ml"}, "[14]": {"molecular_target": "recombinant Fc chimeric conjugate of human HER2 (human) (UniProt P04626)", "test": "ELISA, coated antigen, B-cell supernatant, IgG 1912,4 ng/ml"}}, "note": "Substitutions are numbered along the chain they refer to."}
{"binder": "B1", "values": [{"measurement": "Optical density (OD)", "setting": "[1]", "value": 0.3, "unit": "OD"}, {"measurement": "Optical density (OD)", "setting": "[2]", "value": 2.3, "unit": "OD"}]}
{"binder": "B2", "values": [{"measurement": "Optical density (OD)", "setting": "[3]", "value": 2.7, "unit": "OD"}, {"measurement": "Optical density (OD)", "setting": "[4]", "value": 3.3, "unit": "OD"}]}
{"binder": "B3", "values": [{"measurement": "Optical density (OD)", "setting": "[5]", "value": 2.7, "unit": "OD"}, {"measurement": "Optical density (OD)", "setting": "[6]", "value": 2.1, "unit": "OD"}]}
{"binder": "B4", "values": [{"measurement": "Optical density (OD)", "setting": "[7]", "value": 2.8, "unit": "OD"}, {"measurement": "Optical density (OD)", "setting": "[8]", "value": 1, "unit": "OD"}]}
{"binder": "B5", "values": [{"measurement": "Optical density (OD)", "setting": "[9]", "value": 3.4, "unit": "OD"}, {"measurement": "Optical density (OD)", "setting": "[10]", "value": 3.1, "unit": "OD"}]}
{"binder": "B6", "values": [{"measurement": "Optical density (OD)", "setting": "[11]", "value": 0.3, "unit": "OD"}, {"measurement": "Optical density (OD)", "setting": "[12]", "value": 3.1, "unit": "OD"}]}
{"binder": "B7", "values": [{"measurement": "Optical density (OD)", "setting": "[13]", "value": 0.4, "unit": "OD"}, {"measurement": "Optical density (OD)", "setting": "[14]", "value": 3.2, "unit": "OD"}]}
